# According to PMC9308757:
# B1: smFRET dsRNA with 5' poly(U) overhang (dsRNA)
# RNA 1: ACCGCUGCCGUCGCUCCG
# RNA 2: UUUUUUUUUUUUUUUUUUUUUUUUUUUUUUUUUUUUUUUUUUUUUUUUUUCGGAGCGACGGCAGCGGU
# Legend:
# MBP-DDX3X = MBP-DDX3X (human, UniProt O00571 1-662); assay: smFRET
# MBP-DDX3Y = MBP-DDX3Y (human, UniProt O15523 1-660); assay: smFRET
# Chain of MBP-DDX3Y (O15523 whole entry): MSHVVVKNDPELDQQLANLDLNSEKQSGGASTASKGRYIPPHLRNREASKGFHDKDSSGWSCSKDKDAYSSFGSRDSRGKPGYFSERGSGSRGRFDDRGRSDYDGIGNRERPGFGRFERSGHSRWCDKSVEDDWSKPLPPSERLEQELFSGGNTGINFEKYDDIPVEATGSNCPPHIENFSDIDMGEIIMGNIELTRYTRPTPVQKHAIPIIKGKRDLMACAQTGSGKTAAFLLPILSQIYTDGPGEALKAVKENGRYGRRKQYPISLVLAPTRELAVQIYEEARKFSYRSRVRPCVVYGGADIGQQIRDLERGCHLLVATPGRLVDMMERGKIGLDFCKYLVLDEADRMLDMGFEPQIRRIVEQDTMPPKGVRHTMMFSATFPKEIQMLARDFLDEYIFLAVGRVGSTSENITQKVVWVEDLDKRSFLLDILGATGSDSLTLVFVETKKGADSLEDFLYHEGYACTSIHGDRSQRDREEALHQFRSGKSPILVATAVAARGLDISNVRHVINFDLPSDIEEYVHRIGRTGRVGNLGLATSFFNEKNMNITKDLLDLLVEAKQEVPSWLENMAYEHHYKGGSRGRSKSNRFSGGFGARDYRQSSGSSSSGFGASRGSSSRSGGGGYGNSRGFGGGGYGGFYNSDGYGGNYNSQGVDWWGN
# Chain of MBP-DDX3X (O00571 whole entry): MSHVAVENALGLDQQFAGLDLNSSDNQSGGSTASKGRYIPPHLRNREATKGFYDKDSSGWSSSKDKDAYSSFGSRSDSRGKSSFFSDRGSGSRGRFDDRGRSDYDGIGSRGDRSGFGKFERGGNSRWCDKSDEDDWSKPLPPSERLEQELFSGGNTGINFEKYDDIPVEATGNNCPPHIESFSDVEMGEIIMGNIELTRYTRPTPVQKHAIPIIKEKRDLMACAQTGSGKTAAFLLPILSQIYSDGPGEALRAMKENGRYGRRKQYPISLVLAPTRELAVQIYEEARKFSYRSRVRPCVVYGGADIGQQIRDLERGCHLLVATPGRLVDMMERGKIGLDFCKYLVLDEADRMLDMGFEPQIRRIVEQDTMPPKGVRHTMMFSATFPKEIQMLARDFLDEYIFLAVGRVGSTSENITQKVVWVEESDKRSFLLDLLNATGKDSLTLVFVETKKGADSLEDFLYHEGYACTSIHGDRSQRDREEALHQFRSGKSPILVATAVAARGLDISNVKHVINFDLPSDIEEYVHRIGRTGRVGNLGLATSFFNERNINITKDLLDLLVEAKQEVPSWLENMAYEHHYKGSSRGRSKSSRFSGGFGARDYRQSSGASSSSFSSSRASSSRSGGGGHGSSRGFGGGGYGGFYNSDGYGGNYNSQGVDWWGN
binder,measurement,setting,value
B1,binding result,MBP-DDX3X,binds
same,binding result,MBP-DDX3Y,binds
